Values belong to the substance of their own block, whether it stands above or below them.
Legend:
[1] = target: GST-fused C-tail of the insulin growth factor I receptor (residues 1268–1367); test: pull-down; GST-fused receptor C-tails immobilized on glutathione-Sepharose beads, incubated with [35S]-labelled in vitro translated GASPs 1 h at 4°C; 20 mM Tris-HCl pH 7.4, 150 mM NaCl, 1 mM EDTA, 1 mM DTT, 10% glycerol, 1% Triton X-100; Phosphor-imager quantification
[2] = target: GST-fused C-tail of the muscarinic M1 acetylcholine receptor (residues 414–460); test: as above
free GST = test: as above
[3] = target: GST-fused C-tail of the α isoform of the thromboxane A2 receptor (residues 304–343); test: as above
[4] = target: GST-fused C-tail of the histamine 2 receptor (residues 284–349); test: as above
[5] = target: GST-fused C-tail of the β1 adrenergic receptor (residues 373–477); test: as above
[6] = target: GST-fused C-tail of the δ-opioid receptor (residues 314–372); test: as above
[7] = target: GST-fused C-tail of the type III transforming growth factor β receptor (residues 805–849); test: as above
[8] = target: T1, GST-fused C-tail of the calcitonin receptor (residues 407–490); test: as above
T1 sequence (P30988 whole entry, species assumed, looked up): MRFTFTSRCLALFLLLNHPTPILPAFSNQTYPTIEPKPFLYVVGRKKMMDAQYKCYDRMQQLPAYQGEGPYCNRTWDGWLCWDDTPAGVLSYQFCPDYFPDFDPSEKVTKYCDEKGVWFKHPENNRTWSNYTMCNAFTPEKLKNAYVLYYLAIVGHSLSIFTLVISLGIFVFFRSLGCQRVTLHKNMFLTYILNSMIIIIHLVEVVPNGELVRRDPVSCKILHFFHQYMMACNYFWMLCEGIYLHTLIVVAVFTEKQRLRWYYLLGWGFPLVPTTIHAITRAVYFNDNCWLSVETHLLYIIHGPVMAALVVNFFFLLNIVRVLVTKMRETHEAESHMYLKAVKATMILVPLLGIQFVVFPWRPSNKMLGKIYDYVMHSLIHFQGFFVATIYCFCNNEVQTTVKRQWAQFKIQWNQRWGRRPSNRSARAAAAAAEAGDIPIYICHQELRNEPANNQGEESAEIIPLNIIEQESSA

[9] = target: GST-fused C-tail of the muscarinic M1 acetylcholine receptor (residues 414–460); test: GST pull-down; settings: parent: est. 100; read off a plot
[10] = target: GST-fused C-tail of the β1 adrenergic receptor (residues 373–477); test: GST pull-down; settings: parent: est. 100; read off a plot
[11] = target: T1, GST-fused C-tail of the calcitonin receptor (residues 407–490); test: GST pull-down; settings: parent: est. 100; read off a plot

GPCR-associated sorting protein 2 (GASP-2), full-length (from UniProt Q96D09) SWFW>AAAA in first GASP motif; SWFW>AAAA in second GASP motif (GASP2-dm; residue numbers not printed), sequence (Q96D09 whole entry, change not shown): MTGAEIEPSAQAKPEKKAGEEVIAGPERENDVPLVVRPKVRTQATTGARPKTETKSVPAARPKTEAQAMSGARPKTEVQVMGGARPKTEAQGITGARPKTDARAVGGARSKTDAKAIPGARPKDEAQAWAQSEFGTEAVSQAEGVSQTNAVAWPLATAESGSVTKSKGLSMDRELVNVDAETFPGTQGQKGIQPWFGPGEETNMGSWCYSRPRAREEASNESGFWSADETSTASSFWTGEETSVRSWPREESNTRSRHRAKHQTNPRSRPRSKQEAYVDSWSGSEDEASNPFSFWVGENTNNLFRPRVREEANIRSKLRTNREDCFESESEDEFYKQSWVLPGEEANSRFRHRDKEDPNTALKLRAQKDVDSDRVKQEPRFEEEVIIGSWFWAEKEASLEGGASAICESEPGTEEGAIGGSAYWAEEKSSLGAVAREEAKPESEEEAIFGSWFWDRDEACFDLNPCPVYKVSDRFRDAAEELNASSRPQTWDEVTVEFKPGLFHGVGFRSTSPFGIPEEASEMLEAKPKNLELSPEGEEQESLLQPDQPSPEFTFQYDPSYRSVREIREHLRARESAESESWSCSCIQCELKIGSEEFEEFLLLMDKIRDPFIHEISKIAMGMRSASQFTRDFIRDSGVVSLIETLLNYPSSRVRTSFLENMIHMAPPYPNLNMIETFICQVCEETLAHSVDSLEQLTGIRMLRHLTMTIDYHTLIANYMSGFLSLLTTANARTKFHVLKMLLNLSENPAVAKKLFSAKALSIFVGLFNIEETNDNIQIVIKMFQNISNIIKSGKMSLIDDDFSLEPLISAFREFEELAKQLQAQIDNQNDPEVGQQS
GASP-9, sequence (Q7L311 whole entry): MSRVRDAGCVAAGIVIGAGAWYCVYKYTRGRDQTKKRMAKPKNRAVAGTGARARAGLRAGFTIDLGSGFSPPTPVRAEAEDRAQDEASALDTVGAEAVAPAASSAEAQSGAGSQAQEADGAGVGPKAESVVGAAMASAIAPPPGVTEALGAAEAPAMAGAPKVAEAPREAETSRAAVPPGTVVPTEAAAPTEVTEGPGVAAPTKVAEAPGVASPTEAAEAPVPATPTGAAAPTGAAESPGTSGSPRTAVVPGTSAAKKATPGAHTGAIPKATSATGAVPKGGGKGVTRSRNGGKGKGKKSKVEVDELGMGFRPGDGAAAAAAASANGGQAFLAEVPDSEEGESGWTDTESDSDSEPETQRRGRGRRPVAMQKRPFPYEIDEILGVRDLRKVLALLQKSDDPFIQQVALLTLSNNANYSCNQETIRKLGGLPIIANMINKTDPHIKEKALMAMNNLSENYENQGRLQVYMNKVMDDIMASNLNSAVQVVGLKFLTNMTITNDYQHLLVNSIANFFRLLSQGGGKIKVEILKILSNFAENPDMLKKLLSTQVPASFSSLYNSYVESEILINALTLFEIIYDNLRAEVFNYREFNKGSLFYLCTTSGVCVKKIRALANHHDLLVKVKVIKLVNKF
GPCR-associated sorting protein 2 (GASP-2), full-length (from UniProt Q96D09) SWFW>AAAA in first GASP motif (GASP2-m1; residue numbers not printed), sequence (Q96D09 whole entry, change not shown): as the sequence (Q96D09 whole entry, change not shown) above
GPCR-associated sorting protein 2 (GASP-2), full-length (from UniProt Q96D09) SWFW>AAAA in second GASP motif (GASP2-m2; residue numbers not printed), sequence (Q96D09 whole entry, change not shown): as above
GST-fused C-tail of the type III transforming growth factor β receptor (residues 805–849), sequence (Q03167 805-849): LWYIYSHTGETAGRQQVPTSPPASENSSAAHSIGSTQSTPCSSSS
GST-fused C-tail of the insulin growth factor I receptor (residues 1268–1367), sequence (P08069 1268-1367): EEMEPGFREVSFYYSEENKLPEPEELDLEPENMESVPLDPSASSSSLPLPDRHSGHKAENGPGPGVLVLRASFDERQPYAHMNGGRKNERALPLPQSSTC
GST-fused C-tail of the histamine 2 receptor (residues 284–349), sequence (P25021 284-349): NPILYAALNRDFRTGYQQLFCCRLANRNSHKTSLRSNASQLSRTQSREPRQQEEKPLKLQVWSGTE

percent of GASP input retained (% of GASP input) [1]: < 1
percent of GASP input retained (% of GASP input) [2]: 2
percent of GASP input retained (% of GASP input) (free GST): < 1
percent of GASP input retained (% of GASP input) [3]: 2
percent of GASP input retained (% of GASP input) [4]: 2
percent of GASP input retained (% of GASP input) [5]: 2
percent of GASP input retained (% of GASP input) [6]: 2
percent of GASP input retained (% of GASP input) [7]: < 1
percent of GASP input retained (% of GASP input) [8]: 2
Substance: GASP-9 (from UniProt Q7L311 1-632) (natural protein)

percent of parent (% of wild-type GASP-2) [9]: 24
percent of parent (% of wild-type GASP-2) [10]: 27
Substance: GPCR-associated sorting protein 2 (GASP-2), full-length (from UniProt Q96D09) SWFW>AAAA in first GASP motif (GASP2-m1; residue numbers not printed)

percent of parent (% of wild-type GASP-2) [9]: 5.5
percent of parent (% of wild-type GASP-2) [10]: 1.5
percent of parent (% of wild-type GASP-2) [11]: 20
Substance: GPCR-associated sorting protein 2 (GASP-2), full-length (from UniProt Q96D09) SWFW>AAAA in first GASP motif; SWFW>AAAA in second GASP motif (GASP2-dm; residue numbers not printed)

percent of parent (% of wild-type GASP-2) [9]: 20
percent of parent (% of wild-type GASP-2) [10]: 11
Substance: GPCR-associated sorting protein 2 (GASP-2), full-length (from UniProt Q96D09) SWFW>AAAA in second GASP motif (GASP2-m2; residue numbers not printed)

Source: PMC3575409, “Identification of a Novel Protein-Protein Interaction Motif Mediating Interaction of GPCR-Associated Sorting Proteins with G Protein-Coupled Receptors” (PLoS ONE, 2013)
